# In paper PMC10572015:
# Columns and labels:
# [1] = biological target: phosphotyrosine-binding domain (PTB)-containing axonal proteins
# [2] = biological target: endogenous PTB-containing squid proteins
"mean anterograde FAT rate, vesicle motility assay in isolated squid axoplasm perfused with 100 nM GST–AICD (Buffer X/2 1.64) [1] [µm/s]","mean retrograde FAT rate, vesicle motility assay in isolated squid axoplasm perfused with 100 nM GST–AICD (Buffer X/2 1.23) [1] [µm/s]","mean anterograde FAT rate, vesicle motility assay in isolated squid axoplasm; 100 nM GST–AICD co-perfused with an excess of Fe65 PTB2-6xHis as competitor (GST–AICD alone 1.20; Buffer X/2 1.64) [2] [µm/s]","mean retrograde FAT rate, vesicle motility assay in isolated squid axoplasm; 100 nM GST–AICD co-perfused with an excess of Fe65 PTB2-6xHis as competitor (GST–AICD alone 1.02; Buffer X/2 1.23) [2] [µm/s]","mean anterograde FAT rate, vesicle motility assay in isolated squid axoplasm perfused with 100 nM GST–AICDΔNPTY (GST–AICD 1.20; Buffer X/2 1.64) [1] [µm/s]","mean retrograde FAT rate, vesicle motility assay in isolated squid axoplasm perfused with 100 nM GST–AICDΔNPTY (GST–AICD 1.02; Buffer X/2 1.23) [1] [µm/s]",Substance
1.2,1.02,1.4,1.19,,,GST–AICD (APP intracellular domain fused to glutathione-S-transferase) (domain or fragment)
,,,,1.5,1.14,GST–AICDΔNPTY (domain or fragment)
